# Data reported in IntAct's records for PubMed 11587540.
# B1: Emerin (Homo sapiens), P50402 (parent)
# chain: MDNYADLSDTELTTLLRRYNIPHGPVVGSTRRLYEKKIFEYETQRRRLSPPSSSAASSYSFSDLNSTRGDADMYDLPKKEDALLYQSKGYNDDYYEESYFTTRTYGEPESAGPSRAVRQSVTSFPDADAFHHQVHDDDLLSSSEEECKDRERPMYGRDSAYQSITHYRPVSASRSSLDLSYYPTSSSTSFMSSSSSSSSWLTRRAIRPENRAPGAGLGQDRQVPLWGQLLLFLVFVIVLFFIYHFMQAEEGNPF
# Variants of: B1
# Settings: with lmna_human LMNA
row,effect of a mutation on the interaction,Variant
1,with no effect,MDNYADLSDTELTTLLRRYNIPHGPVVGSTRRLYEKKIFEYETQRRRLSPPSSSAASSYSFSDLNSTRGDADMYDLPKKEDALLYQSKGYNDDYYEESYFTTRTYGEPESAGPSRAVRQSVTSFPDADAFHHHVHDDDLLSSSEEECKDRERPMYGRDSAYQSITHYRPVSASRSSLDLSYYPTSSSTSFMSSSSSSSSWLTRRAIRPENRAPGAGLGQDRQVPLWGQLLLFLVFVIVLFFIYHFMQAEEGNPF [Q133H]
